Binding data for 1 sequence are collected here from article PMC11237755.

In this data set the target is T1, TtdV-His6;TtdW-His6 (Salmonella enterica serovar Typhimurium IR715 (ATCC14028 NalR);Salmonella enterica serovar Typhimurium IR715 (ATCC14028 NalR)) (UniProt Q8ZLP8+Q8ZLP7).
T1 sequence 1: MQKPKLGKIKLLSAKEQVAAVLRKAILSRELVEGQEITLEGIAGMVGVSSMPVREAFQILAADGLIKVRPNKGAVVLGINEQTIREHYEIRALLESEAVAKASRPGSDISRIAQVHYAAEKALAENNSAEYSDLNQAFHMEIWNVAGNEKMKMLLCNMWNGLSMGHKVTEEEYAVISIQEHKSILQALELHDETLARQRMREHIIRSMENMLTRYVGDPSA
T1 sequence 2: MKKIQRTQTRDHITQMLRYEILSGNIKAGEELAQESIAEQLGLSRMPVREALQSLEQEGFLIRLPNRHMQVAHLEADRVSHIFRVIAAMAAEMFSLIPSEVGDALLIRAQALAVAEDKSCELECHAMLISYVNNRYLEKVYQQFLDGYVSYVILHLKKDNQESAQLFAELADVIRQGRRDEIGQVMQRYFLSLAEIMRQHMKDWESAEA
Nature of the data set: EMSA. The note with it: LightShift Chemiluminescent EMSA kit (binding buffer, salt and pH not given), 20 min room temperature; 20 fmol probe, 6% 0.5x TBE gel (TtdV/TtdW); 50 fmol …. On the technique in general: A gel shift assay detects complexes by their altered migration in electrophoresis.

As for “CGTATGCTGACCCGCTATGTTGGTGACCCTTCTGCCTGATCTTTTCGCCTGCGTGAGCATCGCAGGCGCTTCAACCAATTCTTCAATTCTATTAATCACGTCCAGTAACGATCTAACCACGATCTTGATGTAGATCCCACTCCTGCATCTTTCCTGAGAAACGATTTGACTTAGTTTTTGTATGGGAATAATTTCTCCCTGTCAACATTGGATACAATATCATATATCATTGATTGGATAATTATAAATATGGAACCCATTACCCTTACCTTATGTTTATTGGTGTTCGCCC (double strand) [Probe 4]”, the binding result is “binds”.
